Target: Tau441 (recombinant full-length Tau protein), monomeric (UniProt P10636-8 1-441)
Assay: cell-based or functional assay

Tau441 (recombinant full-length Tau protein), monomeric, sequence (P10636 other isoform, or with tags, fused parts or gaps): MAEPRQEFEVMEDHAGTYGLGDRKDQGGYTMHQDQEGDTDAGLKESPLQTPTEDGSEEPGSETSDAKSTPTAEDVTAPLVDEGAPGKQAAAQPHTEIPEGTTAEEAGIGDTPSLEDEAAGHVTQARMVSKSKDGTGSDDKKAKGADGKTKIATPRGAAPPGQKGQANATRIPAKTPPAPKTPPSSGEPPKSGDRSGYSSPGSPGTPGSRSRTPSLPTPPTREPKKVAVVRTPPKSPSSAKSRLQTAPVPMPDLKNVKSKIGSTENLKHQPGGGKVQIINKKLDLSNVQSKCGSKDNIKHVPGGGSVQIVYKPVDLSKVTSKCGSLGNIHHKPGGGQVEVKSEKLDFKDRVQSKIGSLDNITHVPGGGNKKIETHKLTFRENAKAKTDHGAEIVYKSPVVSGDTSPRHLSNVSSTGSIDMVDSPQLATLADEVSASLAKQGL

B1: Bri2 BRICHOS domain R221E (residues 113-231 of Bri2), oligomeric fraction (domain or fragment, human)
chain: GSQTIEENIKIFEEEEVEFISVPVPEFADSDPANIVHDFNKKLTAYLDLNLDKCYVIPLNTSIVMPPRNLLELLINIKAGTYLPQSYLIHEHMVITDRIENIDHLGFFIYELCHDKETYKL
turbidity (absorbance at 350 nm) of 20 uM Tau441 with 8% PEG8000 and sub- to superstoichiometric Bri2 BRICHOS, relative to Tau441 droplets alone: 2 fold

Source: PMC12257531, “Chaperone-Mediated Regulation of Tau Phase Separation, Fibrillation, and Toxicity” (Journal of the American Chemical Society, 2025)
